The test concerns the target human 4-1BB on Jurkat cells (Promega) (human) (UniProt Q07011). The test can be described thus: cell-based or functional assay.

human 4-1BB on Jurkat cells (Promega) (human), sequence (Q07011 24-255): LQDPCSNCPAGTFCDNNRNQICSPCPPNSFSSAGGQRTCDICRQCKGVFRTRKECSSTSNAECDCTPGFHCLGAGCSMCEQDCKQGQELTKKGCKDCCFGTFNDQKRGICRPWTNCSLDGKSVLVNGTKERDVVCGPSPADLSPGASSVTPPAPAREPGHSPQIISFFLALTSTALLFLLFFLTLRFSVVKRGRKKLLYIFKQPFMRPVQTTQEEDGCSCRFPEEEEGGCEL

Turning to Urelumab (BMS-663513) (antibody), the EC50 (nM), 4-1BB NFκB luciferase reporter bioassay, CHO-hROR1 100% amounted to 0.235 nM.

Source of the values: patent US20260015418A1.
